The record followed here is patent US20190105403A1 (STCUBE, published 2019).

T1: human PD-L1 4NQ (N35Q/N192Q/N200Q/N219Q), fully unglycosylated variant, expressed on BT549 cells (human, UniProt Q9NZQ7 19-290)
T1 construct: In the Western blots the protein was in cell lysate; also called 4NQ PD-L1; unglycosylated PD-L1 4NQ mutant
T1 chain: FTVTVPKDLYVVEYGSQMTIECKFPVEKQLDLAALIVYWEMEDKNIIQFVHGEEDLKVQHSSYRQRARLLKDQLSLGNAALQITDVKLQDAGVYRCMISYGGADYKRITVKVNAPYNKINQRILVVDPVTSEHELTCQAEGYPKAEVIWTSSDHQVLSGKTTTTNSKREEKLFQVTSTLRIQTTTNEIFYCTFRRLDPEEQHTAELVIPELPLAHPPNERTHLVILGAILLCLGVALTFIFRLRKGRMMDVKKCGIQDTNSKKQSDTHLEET

B1: STM073 MAb (antibody, V domains shown)
VH: EVQLVESGGALVKPGGSLKLSCAASGFTFSNSAMSWVRQTPEKRLEWVATISSAGSYTYYPDSVKGRFTISRDNAKNTLYLQMSSLRSEDTALYYCTRHYDYYFDYWGQGATLTVSS
VL: QIVLTQSPAIMSASPGEKVTLTCSASSSVSYMHWYQQKPGSSPRLVIYDTSNLASGVPVRFSGSGSGTSYSLTVSRMEAEDAATYYCQQWSDHPLTFGAGTKLELK
B2: STM115 MAb (antibody, V domains shown)
VH: EVMLVESGGALVEPGGSLKLSCVASGFTFSNYAMSWVRQTPERRLEWVASITNGGTYTYYPDSVKGRFTISRDNARNTLYLQMSSLRSEDTAMYFCARPLHYYGGSHFDYWGQGTTLTVSS
VL: EIVLTQSPALMAASPGEKVTITCSVSSSISSNTLHWYQQKSEISPKPWIYGTSNLASGVPVRFSGSGSGTSYSLTISSMEAEDAATYYCQQWSSYPLTFGGGTKLEIK
B3: STM108 MAb (antibody, V domains shown)
VH: EVMLVESGGALVKPGGSLKLSCAASGFSLSNYVMSWVRQTPEKRLEWVATISSGGRYIYYTDSVKGRFTISRDNARNTLYLQMSSLRSEDTAMYYCARDGSTLYYFDYWGQGTTLTVSS
VL: QTVLTQSPAIMSASPGEKVTMTCSASSSVDYMYWYQQKPGSSPRLLIYDTSNLASGVPVRFSGSGSGTSYSLTISRMEAEDAATYYCQQWSSSPPITFGTGTKVELK
B4: STM004 MAb (antibody, V domains shown)
VH: QVQLQQSDAELVKPGASVKISCKASGYTFSDHAIHWVKQRPEQGLEWIGCISPGSGDITYNEKFKGKATLTADKSSSTAYMQLNSLTSEDSAVYFCKRWGLDYWGQGTTLTVSS
VL: DIVLTQSPASLAVSLGQRATISCRASESVEFYGTTLMQWYQQKPGQPPRLLIYAASNVESGVPARFSGSGSGTDFSLNIHPVEDDDIAMYFCQQSRKVPYTFGGGTKLEIK

One assay concerns the target T1, human PD-L1 4NQ …. The assay is described as follows: flow cytometry on BT549 cells overexpressing PD-L1 4NQ (mixed with WT cells), FITC secondary antibody.
For the molecule B1, the MFI came to 12.2.

On to B2, for which the MFI was 21.3.

Molecule B3 showed an MFI of 27.6.

Consider B4, for which the MFI came to 8.7.

The target in the next assay is T2, human PD-L1 wild type (glycosylated), expressed on cells (human, UniProt Q9NZQ7 19-290, N-glycosylated at N35, N192, N200 and N219).
T2 construct: Endogenous on NCI-H226, A431 and MDA-MB231 cells and transfected into 4T1 cells in the functional assays; In the Western blots the protein was in cell lysate; also called PD-L1 WT; WT PD-L1
T2 sequence (Q9NZQ7 19-290): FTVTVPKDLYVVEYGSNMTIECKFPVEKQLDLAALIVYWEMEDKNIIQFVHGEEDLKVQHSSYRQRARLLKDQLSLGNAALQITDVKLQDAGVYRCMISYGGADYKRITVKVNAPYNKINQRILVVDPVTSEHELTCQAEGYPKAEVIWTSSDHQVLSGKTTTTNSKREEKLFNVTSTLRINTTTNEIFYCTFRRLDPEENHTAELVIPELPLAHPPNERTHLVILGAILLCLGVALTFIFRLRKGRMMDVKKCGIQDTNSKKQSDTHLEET
The assay can be described thus: flow cytometry on BT549 cells overexpressing PD-L1 WT (biotin labeled, mixed with 4NQ cells), FITC secondary antibody. (In general: A flow cytometer gives signals particle by particle.)
Consider B1, for which the MFI turned out to be 63.9.

In turn, B2 displayed an MFI of 51.1.

B3 showed an MFI of 117.

B4 displayed an MFI of 42.5.
